Experimental data: publication PMC8038350, “Nordihydroguaiaretic Acid as a Novel Substrate and Inhibitor of Catechol O-Methyltransferase Modulates 4-Hydroxyestradiol-Induced Cyto- and Genotoxicity in MCF-7 Cells” (Molecules, 2021)

Substrate: [H][C@@]12CCc3c(ccc(O)c3O)[C@@]1([H])CC[C@]1(C)[C@@H](O)CC[C@@]21[H]
Assay: enzyme kinetics of O-methylation by recombinant COMT, HPLC-DAD (Km)
Format: biochemical, Homo sapiens
Conditions: S-adenosyl-L-methionine (SAM)

B1: catechol O-methyl transferase (COMT) (Homo sapiens) (protein)
chain: MGDTKEQRILNHVLQHAEPGNAQSVLEAIDTYCEQKEWAMNVGDKKGKIVDAVIQEHQPSVLLELGAYCGYSAVRMARLLSPGARLITIEINPDCAAITQRMVDFAGVKDKVTLVVGASQDIIPQLKKKYDVDTLDMVFLDHWKDRYLPDTLLLEECGLLRKGTVLLADNVICPGAPDFLAHVRGSSCFECTHYQSFLEYREVVDGLEKAIYKGPGSEAGP
notes: recombinant human soluble COMT, hexahistidine-tagged
Work on B1 yielded a Km (Mg2+) of 37.9 µM and a Vmax (Mg2+ docking only: active site, hydrogen bonds with Glu199 and Asn170) of 3.26 µmol/min/mg.
